Test: yeast display, Sf9 membrane polyspecificity reagent, FACS + sequencing; frameworks hold sequencing errors
Procedure, shortened: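 Polyreactivity labels are assigned by the sorting gate from which each nanobody was recovered. The gates were low and high (top ~1%), set on anti-HA fluorescence for expression and streptavidin fluorescence for reagent binding. Before sorting, galactose-induced (36–48 hours) yeast display cells were stained for 1 hour at 4 °C with 10% biotinylated, detergent-solubilized Sf9 membrane reagent.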

Row | Sequence | polyreactivity (PSR sort gate)
1 | KVQLVESGGGLVQAGGSLRLSCAASGRTFVYYAMGWYRQAPGKERELVAAISSGGSTNYADSVKGRFTISRDNAKNTVYLQMNSLKPEDTAVYYCNADWGFPDVKETGVRFDYWGQGTQVTVSS | low polyreactivity
2 | QVQLVESGGGLVQAGGSLRLSCAASGFTFAAYAMGWYRQAPGKESELVAAITSRDGTTYYADSVKGRFTISRNNAKNTVYLQMNSLKPEDTAVYYCAKDHFTWGVSEDDYWRQGTQVTVSS | low polyreactivity
3 | QVQLVESGGGLVQAGGSLRLSCAASGSTFYFYVLGWYRQAPGKERELVAAISWGGASTYYAVSVKGRFTISRDHAKNTVYLQLNSLKPEDTAVYNCTDRLRVRYDYWGQGTQVTVSS | low polyreactivity
4 | QVQLVESGGGLVQAGGSLRLSCAASGSTIGLNARGWYRQAPGKERELVAAITRSDITNYADSVKGRFTISRDNAKNTVYLQMNRLKPEDTEVYYCAAESPLYWVDDFESGWRYYYSGQGTQVTVSS | low polyreactivity
5 | QVQLVESGGGLVQAGGSLRLSCAASGRTLYPYAMGWYRQAPGKERELVATITWGDGSTSYADSVKGRFTISRDNAKNTVYLQMNSLKPEDTAVYYCNVRISNTSYRYPTFDYWGQGTQVTVSS | low polyreactivity
6 | QVQLVESGGGLVQAGGSLRLSCAASGSILASYAMGWYRQAPGKERELVAAIRTSGDRTYYADSVKGRFTISRDNAKNTVYLQMNSLKPEDTAVYYCAATYRYRPYSYYQYYSWGQGTQVTVSS | high polyreactivity
7 | QVQLVESGGGLVQAGGSLRLSCAASGFIFYSYTMVWYRQAPGKERELVASISRRGGITYYADSVKGRFTISRDNAKNTVYLQMNILIPEDTAVFYCAAYSWRRQGDHYDYWGQGTKVTVSS | high polyreactivity
8 | QVQLVESRGGLVQAGGSLRLSCAPSGSTFHYYAMGWYRQAQGKERELDAAISDRDGGTFYADSVKGRFTISRDNATNTVYLQINSLKPEDTAVYYCYARKRGARFILGYDYWGQGPQVTVSS | low polyreactivity
9 | QVQLVESGGGLVQAGGILRLSCAASGIIFRKNAMGWYRQAPGKERELVAAISSTGASTNYADSVKGRFTISRDNAKNTVYLQMNSLKPEDTAVYYCAASRTRYWKYDYWGPGTQVTVSS | high polyreactivity
10 | QVQLVESGGGLVQAGGSLRLSCAASGSTSGKNAMGWYRQAPGKERELVAVITYSGSRTYYADSVKGRFTISRDNAKNTVYLQMNSLIPEDTAVYYCAAVGGGVSFRGNYWGQGTQVTVSS | high polyreactivity
11 | QVQLVESGGGLVQAGGSLRLSCAASGSTFSRNVMGWYRQAPGKERELVAAISRGGSTNYADSVKGRFTISRENAKNTVYLQMNSLKPEDTAVYYCNAPRLGKFYYWGQGTQVTVSS | low polyreactivity
12 | QVQLVESGGGLVQAGGSLRLSCAASGRTFGFYGMGWYRQAPGKEREFVAAITRRGGSTYYADSVKGRFTISRDNAKNTVYLQMNSLNPEDTAVYYCNAARGAYYRWWGFGSDYWGQGTQVTVSS | high polyreactivity
13 | QDQLVESGGGLVQSGGSLRLSCAASGSILWSYAMGWYIQAPGKERELVAANTSGGSTYYADSVKGRFTISRDNAKNTVYLQMNSLKPEDTAVYFCAADRWRDFWFNEEYWGQGTQVTVSS | high polyreactivity
14 | QVQLVESGGGLVQAGGSLRLSCAASGRTFYGNVMGWYRQAPGKERELVATISYSAGSTYYADSVKGRFTISRDNAKNTVYFQMNSLKPEDTAVYYCAAAGYVYHWAPRGSRYYYWGQGTQVTVSS | low polyreactivity
15 | QVQLVESGGGLVQAGGSRRLSCAASGSTFRRYAMGWSRQAPWKERELVAAISGRGGSTSYADSVKGRFTISRDNAKNTVYLQMNSLKPEDTAVYYCNARGYPSRFKYYYWGEGTQVTVSS | high polyreactivity
16 | QVQLVESGGGLVQAGGSLRLSCAASGRIYTRYMGWYRQAPGKEREMVATINWSGGSTYYADSVKGRFTISRDNAKNTVYLQMNSLKPEDTAVYYCNARNVDFYYVQYNGAKIFDYWGQGTQVTVSS | low polyreactivity
17 | QVQLVESGGGLVQAGGSLRLSCAASGFIFGYYAMGWYRQAPGKERELVAAMSRGGITYYADSVNGRFTISRDNAKNTVYLQMNSLKPEDTAVYYCAAPNRYSVPMYYWGQGTQVTVSS | low polyreactivity
18 | QVQLVESGGGLVQAGGSLRLSCAASGFTFKYNAMGWYRQAPGKERELVAAITASGGSTRYADSVKARFTISRDNAKNTVYLQMNSLKPEDTAVNYCAARKWFPRYSASPRSHGPYDYWGLGTQVTVSS | high polyreactivity
19 | QVQLVDSGGGVVQEGGSLRLSCAASGIISLFNVMGWYRQAPGKERELVASITGRGGSTFYADSVKGRFTISRDNAKNTVYLQMNSLQPEESGVYYCATDTGDTYPVNGLYDYWGHGTQVTVSS | low polyreactivity
20 | QVQLVESGGGLVQAGGSLRLSCAASGSTFRRNAMGWYRQAPGKEREFVAAISSRGGSTYYADSVKGRFTISRDNAKNTVYLQMNSLKPEDTAVYYCAADKASRHSNPFYYWGQGTQVTVSS | high polyreactivity
21 | QVQLVESGGGSVQAGGRLRLSCAASGSIFGQYAMGWYRQAPGKERELVAAISDTDSTNYADSVKGRFTISRDNAKNTVYLQMNSLKPEDTAVYYCNADTWGYRLGYYYYKFDYWGQGTQVTVSS | low polyreactivity
22 | QVQLVESGGGLVQAGGRLRLSCAASGSTLIRNVMGWYRQAPGKERELVAAINTRGTTTYYADSVKGRFTISRDKAKNTVYLQMNSLKPEDTAVSYCAARTPHYSYGYWGQGTHVTVSS | high polyreactivity

Row | Sequence | polyreactivity (PSR sort gate)
23 | QVQLVESGGGLVQAGGSLRLTCAASGSIFYYYAMGWYRQAPGKERELVASITYRGGSTYYADSVKGRFTISRDYAKNTVYLLMNSLKPEDTAFYYCAVVGYRYRHYYWGQGTQVTVSS | high polyreactivity
24 | QVQLVESGGGLVQAGGSLRLSCDASGSISIGYTMGWYRQAPGKERELVATISWSGGNTYYADSVKGRFTISRDNAKNTVYLQMNSLKPEDTAVYYCAARWYYYPLLYDYWGQGTQVTVSS | low polyreactivity
25 | QDQLVDSGGGLVQAGGSLRLSCAASGRTIISYAMGRYRPAPGKERELVATITRDGRTNYADSVKGRFTISRDNAKNTVYLQMNSLNPEDTAVYYCNADSRYRYDYWGQGSQVTVSS | low polyreactivity
26 | QVQLVESGGGLVQAGGSLRLSCAASGSTFVPNTMGWYRQAPGKERELVAAITYSGGSTYYADSVKGRFTISRDNAKNTVYLQMNSLKPEDTAVYYCAAEGTTWYYDMDYWGQGTQVTVSS | low polyreactivity
27 | QVQLVESGGGLVQAGVSLRLSCADSGFTFDGYAMGWYRQAPGKERELVAAISDSGDSTYYADSVKGRFTISRDNAKNTVYLHMNSLKPEDTAVYYCAAGLGYYWSDYFAYDYWGQGTQVTVSS | low polyreactivity
28 | QDQLVESGGGLVQAGGSLRLSCAASGSMFDYYAMGWYRQAPGKERELVAAISGSGSRTYYADSVKGRFTISRVTAKNTVYIQMNRLKPEDTAFYYCAAESVVYDIVGYEYWYDYYWGLGTQVTVSS | high polyreactivity
29 | QVQLVESGGVLVQAGGSLRLSCAASGSIYTWYAMGWYRQAPGKERELVAAITRGGSTYADSVKGRFTISRENAKNTVYLQMNSLKPEDTAVYYCNAVYGVYDFNYWGQGTQVTVSS | low polyreactivity
30 | QVQLVESGGGLVQAGGSLRLSCAASGRIFDVYAMGWYRQAPGKERELVAGITYSGGSTYYADSVKGRFTISRDNAKNTVYVQMNSLKPEDTAVYYCAALNGDPYVQLLEDYWGQGTQVTVSS | low polyreactivity
31 | QVQLVESGGVLVQAGGSLRLSCAASGNTFKHYALGGYRQAPGKEREKVAAISRSGASTNYADSVKGRFTISRDNAKNTVYLQMNSLKPEDTAVYYCAAEYSARKAYLYDYWGQGTQVTVSS | high polyreactivity
32 | QVQLVESGGGLVQAGGSLRLSCAASGRIFYPYVMGWYRQAPGKERELVAAISDSTGSTYYADSVKGRFTISRDNAKNTVYLQMNSLKPEDTAVYYCAAGWFYATYWRFYYWGQGTLVTVSS | low polyreactivity
33 | QVQLVESGGGLVQAGGSLRLSCAASGRTFWSYAMGWYRQAPGKEREFVAAISRRGGITYYADSVKGRFTLSRDNAKNTVYLQMNSLKPEDTAVYYCAKGAQSYYGGQVKYDYWGQGTQVTVSS | high polyreactivity
34 | QVQLVESGGGLVQAGGSLRLSGAASGRTFRGNVMGWYRQAPGKEREFVAAITKSDGSTYYADSVKGRFTISRDNAKNTVYLQMNSLKPEDTAVYYCAARTARTGWPWFRYDYWGQGTQVTVSS | low polyreactivity
35 | QVQLQESGGGMVQAGGSLRLTCAATGYISSCYPMRWYRQAPGKEREFVATIAPGATTYYADSVKGRFTISRDYAKNTVYLQMNSQKPEATAVYVCAAGPENIDFYSYWGQGTQVTVSS | low polyreactivity
36 | QVQLVESGGGIVKAGGSLGISCAASGRIFDYYDMLWYRQAPGKERELVAAITQSGGSTNYADSVKGRFTISRDNAKNTVYLQMNSLKPEDTAVYYCAGVGYYTKRRFGYWGQGTQVTVSS | high polyreactivity
37 | QVHLVESGGGLVQAGGSLRLSCADCGFTLYGNAMGWYRQAPGKVRELVAAITKSGGRTYYADSVKGRFTISRDNAKNTVYLQMNSLKPEDTAVYYCAVRAKSRYDYWGQGTQVTVSS | high polyreactivity
38 | QVQLVESGGGLVQAGGSLRLSCAASGSSFSRNAMGWYRQAPGKESELVAAISWSGGRTYYAASVKGRFTISRDNAKNTVYLQMNSLKPEDTAVYYCAKGYSYHWYHVTYYSLGQGTQVTVSS | high polyreactivity
39 | QVQLVESGGGLVQAGGSLRLSCAAYGSTFVLYGMGWYRQAPGKEWELVAAISTSGGRTYYADSEKGRFTISRDNAKNSVSLQMNSLKPEDTAVYYCAALTYVAHYDEYWGQGTQVTVSS | low polyreactivity
40 | QVQLVESGGRLVQAGGSLRLSCAASGIIFWVNAMGWYRQSTGKESELVAAISGRGGRTYYVDSVKGRFTISRDNAKNTVYLQMNSLKPEDTAVYYCNTVPYPAYLARMDYWGQGTQGTVSS | high polyreactivity
41 | QVQLVESGGGLVQAGGSLRLSCAASGSIYYAMGWYRQAPGKESEFVAAINSGGSTYYADSVKGRFTISRDNAKNTVYLQMNSLKPEDTAVYYCAKPTYRFYWGDFDYWGQGTQVTVSS | low polyreactivity
42 | QVQLVESGGGLVQAGGSLRLSCAASGNTFYGYAMGWYRQAPGKERELVASITLSGDSTYYADSVKGRFTISRDNAKNTVYLQMNSLKPEDTAVYDCAGVYTYPLGYYHYTYDYWGQGTQVTVSS | low polyreactivity
43 | HVQLVESGGGLVQAGGSLRLSCAASGRIFGPNAMGWYRQAPGKERELVAAISSGTGSRTYYADSVKGRFTISRDNAKKTVSLQMISLKPEDTAVYYCAVYSQQVYRWKYRFDYWGQGTQVTVSS | low polyreactivity

— the nanobody polyreactivity screen of Harvey et al. (2022)
